From US20130052198A1, “ANTI-INFLAMMATORY FACTORS” (THE GENERAL HOSPITAL CORPORATION, priority 2010, published 2013)
“Also recorded” adds a separate entry of the source.

What was measured:
[1] = test system: human leukocytes in culture; assay: Cytokine production (IL-10 or IFN-γ) in human leukocytes in culture; assay type: cell-based; conditions: concentrations within five orders of magnitude of 10 μg/mL
Description: Leukocytes were prepared from fresh whole human blood, collected and spun in the presence of Ficoll for 30 minutes at 1500×g. The mononuclear cell layer was transferred to a new tube where it was washed once with RPMI 1640. The mononuclear cells were plated at a density of 1×10^5 per well of a 96-well plate in 50 μL of RPMI 1640 per well. MSC-CM was then immediately added to each well and allowed to incubate in the presence of the mononuclear cells for 16 hours. After incubation, 50 μL of RPMI 1640 containing 10 μg/mL of LPS was added to each well and allowed to incubate for an additional 5 hours. The resultant supernatants were collected and analyzed via ELISA for human interleukin-10 (IL-10). This procedure of incubating leukocytes with MSC-CM to determine IL-10 stimulating activity will be henceforth referred to as the “IL-10 assay”.
Preparations and use of MSC-CM, Fb-CM, LPS-stimulated MSC-CM, leukocytes were as described in Examples 1-3 and the Figures. These conditioned media preparations were added to leukocyte cultures for 16 hours, after which the culture was stimulated with LPS at 10 μg/ml. The medium from this culture was collected 24 hours after LPS stimulation of leukocytes and analyzed using an IFN-γ ELISA.

[2] = test system: colitic mice (TNBS colitis); assay: TNBS colitis in mice, colon histopathology; assay type: in vivo; conditions: 3 μg protein twice over 24 h; sacrifice at day 2; compared to vehicle (saline)
Description: FIG. 6: Administered MFAP5 and LGALS3BP protect mice from developing TNBS colitis. Mice were presensitized via the skin with 1% TNBS one week prior to intra-rectal administration of 3 mg of TNBS per mouse in a mixture of 50% EtOH and 50% sterile water to induce colitis. Mice were treated with 3 μg each of MFAP5, LGALS3BP and GALNT1 twice over a 24 hour period, once in conjunction with the TNBS administration and once 24 hours later. Mice were then sacrificed at day 2 and tissue collected for analysis. As expected, mice treated with vehicle (saline) developed extensive inflammation of the colon with loss of crypts and frank necrosis of the intestinal epithelium.
MFAP5, LGALS3BP and PENK all protected the colonic epithelium from the hallmark features of TNBS colitis: necrosis, inflammatory infiltrate and loss of crypts. Especially at the microscopic level, the tissue of the MFAP5, LGALS3BP and PENK treated animals looked mostly normal with minor foci of inflammation and edema.

[3] = test system: human peripheral blood mononuclear cells (PBMCs); assay: PBMC potency assay (IL-10 assay): IL-10 secretion by LPS-stimulated PBMCs, ELISA; assay type: cell-based; conditions: recombinant molecules diluted in RPMI 1640
From the text: FIG. 1: MSC conditioned medium causes peripheral blood mononuclear cells to secrete IL-10 in response to LPS, providing the basis for differential gene expression analysis to identify genes responsible for the increased activity. (a) Generalized schematic of EPS methodology. Protein products are derived from various cell types in the form of conditioned media and screened for activity in an in vitro potency assay. […] Recombinant protein products of the enriched gene list are then screened in a potency assay and the candidates with the highest activity are assessed for activity in vivo. (b) In vitro potency assay. This assay entails incubating primary human peripheral blood mononuclear cells (PBMCs) in the presence of protein products (e.g., conditioned medium from a cell) for 16 hours, followed by stimulation of the PBMCs with LPS for five hours, and measurement of IL-10 secretion into the supernatant via ELISA. (c) Time course of IL-10 expression from PBMCs when incubated with either bone marrow stromal cell conditioned medium (BMSC-CM) or unconditioned medium (DMEM) in the potency assay. (d) Comparison of potency assay activity of conditioned medium from normal human dermal fibroblasts (FB-CM), BMSCs (BMSC-CM) and BMSCs preincubated with LPS prior to conditioning (BMSCLPS-CM). * p<0.001 compared to FB-CM, ** p<0.001 compared to BMSC-CM. (e) Schematic of the differential gene expression comparison strategy to select for genes uniquely expressed at high levels in LPS stimulated MSCs (MSCLPS) compared to MSCs and fibroblasts (FBs). Analysis was then conducted on the genes identified to select for genes that were most likely to be responsible for secreted proteins. MSCLPS, LPS stimulated MSC; FB, fibroblast. […]
Leukocytes were prepared from fresh whole human blood, collected and spun in the presence of Ficoll for 30 minutes at 1500×g. […] The resultant supernatants were collected and analyzed via ELISA for human interleukin-10 (IL-10). […]

[4] = test system: BALB/cJ mice challenged with a sub-lethal dose of LPS; assay: In vivo LPS assay, sub-lethal LPS model: serum cytokines and lung histology; conditions: for serum IL-10 levels / serum TNF-α: 3 μg protein or 1 mL 1×BMSC-CM IP, twice, 100 μg LPS, 48 h later, compared to saline
Description: FIG. 8: In vivo hit screen and survival study. (a) Schematic of the in vivo LPS assay. Proteins were administered intraperitoneal (IP) at the concentration that elicited the strongest effect in vitro, followed by IP administration of LPS in conjunction with a second dose of the proteins 16 hours later. Two days after the combined LPS and second protein dose, the mice were sacrificed and assessed for changes in serum cytokines and tissue histology. (b) Serum IL-10 levels of BALB/cJ mice subjected to the in vivo LPS assay. * p<0.001 compared to saline. (c) Serum TNF-α levels of BALB/cJ mice subjected to the in vivo LPS assay. * p<0.001 compared to saline, ** p<0.05 compared to BMSC-CM. (d) Representative micrographs of lung tissue from mice subjected to the in vivo LPS assay stained with hematoxylin and eosin. (e) Survival of mice subjected to a lethal dose of LPS i.p. (350 μg) concurrently with i.p. saline vehicle (bold dark blue line), 5 μg Anti-TNF-α antibody (thin dark blue line), 4 μg PENK (bold light blue line) or 4 μg MFAP5 (thin light blue line). Scale bar=200 μm.
All procedures were performed in accordance with the animal rights policies of the Massachusetts General Hospital Subcommittee on Research Animal Care. For the sub-lethal LPS model, eight week old female BALB/cJ mice (n≧3) (Jackson Laboratories, Bar Harbor, Me.) were administered an initial dose of either vehicle or one of the experimental therapies IP: 200 μL of saline (vehicle), or 3 μg of protein (e.g., GALNT1, LGALS3BP, MFAP5 or PENK) diluted in 200 μL of saline, or 1 mL of 1×BMSC-CM. 16 hours later, mice received a second dose of either vehicle or therapy in conjunction with a dose of 100 μg of LPS (E. coli 0111:B4; Sigma, St. Louis, Mo.) diluted in physiological saline. 48 hours later, mice were sacrificed and tissue and blood were collected for analysis. Serum was tested for the presence of IL-10 and TNF-α via ELISA and lungs, livers and kidneys of the animals were preserved for hematoxylin and eosin staining. For the lethal LPS model, eight week old female BALB/cJ mice (n≧5) were co-administered a lethal dose of LPS (350 μg LPS in 100 μL physiological saline) and either vehicle (negative control), 5 μg anti-TNF-α (positive control; R&D Systems, Minneapolis, Minn.), 4 μg MFAP5 diluted in 100 μL of physiological saline, or 4 μg of PENK diluted in 100 μL of physiological saline. Mice were monitored for survival for seven days (168 hours).

B1: UDP-N-acetyl-α-D-galactosamine:polypeptide N-acetylgalactosaminyltransferase 1 (protein, UniProt Q10472 1-559, looked up)
Polypeptide …: MRKFAYCKVVLATSLIWVLLDMFLLLYFSECNKCDEKKERGLPAGDVLEPVQKPHEGPGEMGKPVVIPKEDQEKMKEMFKINQFNLMASEMIALNRSLPDVRLEGCKTKVYPDNLPTTSVVIVFHNEAWSTLLRTVHSVINRSPRHMIEEIVLVDDASERDFLKRPLESYVKKLKVPVHVIRMEQRSGLIRARLKGAAVSKGQVITFLDAHCECTVGWLEPLLARIKHDRRTVVCPIIDVISDDTFEYMAGSDMTYGGFNWKLNFRWYPVPQREMDRRKGDRTLPVRTPTMAGGLFSIDRDYFQEIGTYDAGMDIWGGENLEISFRIWQCGGTLEIVTCSHVGHVFRKATPYTFPGGTGQIINKNNRRLAEVWMDEFKNFFYIISPGVTKVDYGDISSRVGLRHKLQCKPFSWYLENIYPDSQIPRHYFSLGEIRNVETNQCLDNMARKENEKVGIFNCHGMGGNQVFSYTANKEIRTDDLCLDVSKLNGPVTMLKCHHLKGNQLWEYDPVKLTLQHVNSNQCLDKATEEDSQVPSIRDCNGSRSQQWLLRNVTLPEIF
notes: recombinant protein product of the GALNT1 gene, secreted factor of marrow stromal cells
For B1, the “promote IL-10 production or suppress IFN-γ production” value [1] was “either promote IL-10 production or suppress IFN-γ production”, the “protection from TNBS colitis (colon histopathology)” value [2] was “not protected from development of colitis” and the “increase of IL-10 production compared to 10×MSC-CM” value [3] was “superior to that induced by 10×MSC-CM”. The “serum IL-10 levels” value [4] was “Significantly elevated”, the “serum TNF-α” value [4] was “not” and the “lung histology (lung protection)” value ([4]; hematoxylin and eosin, sub-lethal LPS model, compared to vehicle) was “moderate protection”.

B2: CRLF1: isolated and purified molecular product of the gene CRLF1 (protein, UniProt O75462 38-422, looked up)
Cytokine receptor-like factor …: AHTAVISPQDPTLLIGSSLLATCSVHGDPPGATAEGLYWTLNGRRLPPELSRVLNASTLALALANLNGSRQRSGDNLVCHARDGSILAGSCLYVGLPPEKPVNISCWSKNMKDLTCRWTPGAHGETFLHTNYSLKYKLRWYGQDNTCEEYHTVGPHSCHIPKDLALFTPYEIWVEATNRLGSARSDVLTLDILDVVTTDPPPDVHVSRVGGLEDQLSVRWVSPPALKDFLFQAKYQIRYRVEDSVDWKVVDDVSNQTSCRLAGLKPGTVYFVQVRCNPFGIYGSKKAGIWSEWSHPTAASTPRSERPGPGGGACEPRGGEPSSGPVRRELKQFLGWLKKHAYCSNLSFRLYDQWRAWMQKSHKTRNQDEGILPSGRRGTARGPAR
With B2 the “promote IL-10 production or suppress IFN-γ production” value [1] was “either promote IL-10 production or suppress IFN-γ production”.

B3: TFPI2: isolated and purified molecular product of the gene TFPI2 (protein, UniProt P48307 23-235, looked up)
Tissue factor pathway …: DAAQEPTGNNAEICLLPLDYGPCRALLLRYYYDRYTQSCRQFLYGGCEGNANNFYTWEACDDACWRIEKVPKVCRLQVSVDDQCEGSTEKYFFNLSSMTCEKFFSGGCHRNRIENRFPDEATCMGFCAPKKIPSFCYSPKDEGLCSANVTRYYFNPRYRTCDAFTYTGCGGNDNNFVSREDCKRACAKALKKKKKMPKLRFASRIRKIRKKQF
In the case of B3, the “promote IL-10 production or suppress IFN-γ production” value [1] is reported as “either promote IL-10 production or suppress IFN-γ production”.

B4: LGALS3BP: Soluble galectin 3 binding protein, highly glycosylated secreted protein; recombinant form tested (protein, UniProt Q08380 19-585, looked up)
Galectin-3-binding protein: VNDGDMRLADGGATNQGRVEIFYRGQWGTVCDNLWDLTDASVVCRALGFENATQALGRAAFGQGSGPIMLDEVQCTGTEASLADCKSLGWLKSNCRHERDAGVVCTNETRSTHTLDLSRELSEALGQIFDSQRGCDLSISVNVQGEDALGFCGHTVILTANLEAQALWKEPGSNVTMSVDAECVPMVRDLLRYFYSRRIDITLSSVKCFHKLASAYGARQLQGYCASLFAILLPQDPSFQMPLDLYAYAVATGDALLEKLCLQFLAWNFEALTQAEAWPSVPTDLLQLLLPRSDLAVPSELALLKAVDTWSWGERASHEEVEGLVEKIRFPMMLPEELFELQFNLSLYWSHEALFQKKTLQALEFHTVPFQLLARYKGLNLTEDTYKPRIYTSPTWSAFVTDSSWSARKSQLVYQSRRGPLVKYSSDYFQAPSDYRYYPYQSFQTPQHPSFLFQDKRVSWSLVYLPTIQSCWNYGFSCSSDELPVLGLTKSGGSDRTIAYENKALMLCEGLFVADVTDFEGWKAAIPSALDTNSSKSTSSFPCPAGHFNGFRTVIRPFYLTNSSGVD
With B4 the “promote IL-10 production or suppress IFN-γ production” value [1] was “either promote IL-10 production or suppress IFN-γ production”, the “protection from TNBS colitis (colon histopathology)” value [2] was “protect the mice from developing acute colitis; also recorded: significant attenuation of colitis; also recorded: protected from developing extensive colonic inflammation” and the “increase of IL-10 production compared to 10×MSC-CM” value [3] was “superior to that induced by 10×MSC-CM”. The “serum IL-10 levels” value [4] was “no IL-10 response” and the “serum TNF-α” value [4] was “significantly suppressed”.
